Drawing on article doi:10.1101/2025.03.26.645568, this text covers stoichiometry N for 1 substance.

This assay deals with Mam1A_(107-213) (Mycobacterium tuberculosis H37Rv). The assay is described as follows: SEC-MALS. A general note: SEC sorts molecules by how far they enter the pores of the column.

In the case of Mam1A_(107-213) (domain or fragment), the stoichiometry N (in general, a count of units in the complex or per binding partner) amounted to 4.
